In paper PMC4861984, “Deciphering a unique biotin scavenging pathway with redundant genes in the probiotic bacterium Lactococcus lactis” (Scientific Reports, 2016):

T1: BirA2_LL (Lactococcus lactis IL1403, UniProt Q9CED9 1-250)
T1 sequence: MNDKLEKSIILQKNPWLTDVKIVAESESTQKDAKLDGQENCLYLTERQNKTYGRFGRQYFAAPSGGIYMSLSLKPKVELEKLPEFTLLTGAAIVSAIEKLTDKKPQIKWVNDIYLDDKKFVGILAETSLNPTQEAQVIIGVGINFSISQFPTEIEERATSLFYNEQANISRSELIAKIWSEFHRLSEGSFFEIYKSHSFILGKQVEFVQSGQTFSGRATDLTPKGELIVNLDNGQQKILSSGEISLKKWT

T2: BirA1_LL (Lactococcus lactis IL1403, UniProt Q9CEQ6 1-323)
T2 sequence: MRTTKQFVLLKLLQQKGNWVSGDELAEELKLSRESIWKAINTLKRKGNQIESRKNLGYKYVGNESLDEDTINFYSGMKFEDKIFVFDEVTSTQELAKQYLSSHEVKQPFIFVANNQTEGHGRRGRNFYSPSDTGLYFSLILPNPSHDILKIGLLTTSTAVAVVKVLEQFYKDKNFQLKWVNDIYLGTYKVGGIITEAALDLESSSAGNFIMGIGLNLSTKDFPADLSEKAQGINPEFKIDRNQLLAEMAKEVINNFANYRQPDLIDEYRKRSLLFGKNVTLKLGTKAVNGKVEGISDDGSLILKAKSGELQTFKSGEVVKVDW

B1: bioY_LL (bioY1 promoter probe) (dsDNA)
DNA 1: CAAATAATAAAATTAACAGTTAACCTAAATTTGATTTTAGGGTTACTGTTTGATATG
DNA 2: CATATCAAACAGTAACCCTAAAATCAAATTTAGGTTAACTGTTAATTTTATTATTTG

Columns and labels:
BirA_ec = target: T3, BirA_ec (Escherichia coli, UniProt P06709); assay: TLC of biotinoyl-5'-AMP from [alpha-32P]ATP; MALDI-TOF of biotinylated AccB87; type: biochemical; settings: 20 uM biotin, 5 uM ATP, 5 mM MgCl2, 100 mM KCl, pH 8, 37 °C; AccB87 acceptor
T3 construct: gene birA
T3 sequence (P06709 whole entry): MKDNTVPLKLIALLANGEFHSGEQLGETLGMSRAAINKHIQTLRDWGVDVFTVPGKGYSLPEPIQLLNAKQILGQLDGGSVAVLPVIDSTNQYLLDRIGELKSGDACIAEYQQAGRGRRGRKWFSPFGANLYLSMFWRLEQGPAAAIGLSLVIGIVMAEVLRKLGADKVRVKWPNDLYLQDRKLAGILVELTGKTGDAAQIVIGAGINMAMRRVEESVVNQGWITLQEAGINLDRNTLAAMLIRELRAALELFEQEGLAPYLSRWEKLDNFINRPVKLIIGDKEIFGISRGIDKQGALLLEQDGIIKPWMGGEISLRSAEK

BirA2_LL = target: T1, BirA2_LL; assay: EMSA; 100 uM biotin + 100 uM ATP; 3-12 pmol protein; Roche binding buffer (composition, pH, temperature not stated), 0.2 pmol DIG probe in 15 ul, 100 uM biotin + 100 uM ATP, ~1 h; native PAGE 7% (Methods) or 7.5%; settings: protein: recombinant; tags: His6 (pET28a); chain copies: 2; label: digoxigenin; blunt
BirA1_LL = target: T2, BirA1_LL; assay: EMSA; 100 uM biotin + 100 uM ATP (forms biotinoyl-AMP); 3-12 pmol protein; Roche binding buffer (composition, pH, temperature not stated), 0.2 pmol DIG probe in 15 ul, 100 uM biotin + 100 uM ATP, ~1 h; native PAGE 7% (Methods) or 7.5%; settings: protein: recombinant; tags: His6 (pET28a); chain copies: 2; label: digoxigenin; blunt

| Molecule | TLC of biotinoyl-5'-AMP from [alpha-32P]ATP; MALDI-TOF of biotinylated AccB87 (BirA_ec) | binding result (BirA2_LL) | binding result (BirA1_LL) |
| --- | --- | --- | --- |
| O=C(O)CCCC[C@@H]1SC[C@@H]2NC(=O)N[C@@H]21 [biotin] | The formation of the biotinylated AccB87 by E. coli BirA | – | – |
| B1 | – | no binding | binds |
